This test has as its target USF-1-Flag (UniProt P22415).
UniProt P22415, sequence (P22415 whole entry): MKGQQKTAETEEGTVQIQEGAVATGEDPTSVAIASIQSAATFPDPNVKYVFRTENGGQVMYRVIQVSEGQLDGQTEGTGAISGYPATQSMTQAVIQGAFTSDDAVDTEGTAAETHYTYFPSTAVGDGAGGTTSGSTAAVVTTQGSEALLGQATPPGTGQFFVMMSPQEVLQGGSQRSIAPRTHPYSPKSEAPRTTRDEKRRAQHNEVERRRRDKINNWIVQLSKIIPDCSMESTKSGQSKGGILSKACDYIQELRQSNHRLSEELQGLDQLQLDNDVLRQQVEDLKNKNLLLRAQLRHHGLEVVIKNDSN

“BAF60c-HA (from UniProt Q6STE5 1-483) (natural protein)”: the USF-dependent FAS promoter activation, luciferase reporter (Fig. 3D) was found to be 4 fold. Under “HA-tagged BAF60c S247D (from UniProt Q6STE5 1-483) (natural protein)” stands 4 fold.

The values are drawn from publication PMC3786575.
